Our source for the binding result and Kd values is publication PMC4652764, “The La-related protein 1-specific domain repurposes HEAT-like repeats to directly bind a 5′TOP sequence”.

The Kd is a measure of binding affinity in units of concentration.

Data set [1] deals with T1, LARP1 DM15 region (human, UniProt Q6PKG0 873-1023). Briefly: EMSA; no specific binding; EMSA: 20 mM Tris-HCl pH 8, 150 mM NaCl, 10% glycerol, 1 mM DTT, 0.5 ug tRNA, 1 ug BSA, <2 nM RNA, 30 min on ice, native 0.5x TBE gel at 4 C. Particulars: protein: recombinant; tags: His6-MBP removed by TEV; glycine linker remnant; label: 5'-32P.
In data set [2] the target is T1, LARP1 DM15 region. Nature of the data set: EMSA; EMSA: 20 mM Tris-HCl pH 8, 150 mM NaCl, 10% glycerol, 1 mM DTT, 0.5 ug tRNA, 1 ug BSA, <2 nM RNA, 30 min on ice, native 0.5x TBE gel at 4 C. As to conditions: protein: recombinant; tags: His6-MBP removed by TEV; glycine linker remnant; label: 5'-32P. For orientation: Mobility shift assays separate free from complexed probe on a gel.

Data set [3] deals with T1, LARP1 DM15 region. Briefly: EMSA; tRNA and BSA competitors; ~500 nM when corrected for active protein; EMSA: 20 mM Tris-HCl pH 8, 150 mM NaCl, 10% glycerol, 1 mM DTT, 0.5 ug tRNA, 1 ug BSA, <2 nM RNA, 30 min on ice, native 0.5x TBE gel at 4 C. As to conditions: protein: recombinant; tags: His6-MBP removed by TEV; glycine linker remnant; label: 5'-32P (EMSA, probing).
For data set [4], the target named is T1, LARP1 DM15 region. Briefly: EMSA; two concentration-dependent complexes; EMSA: 20 mM Tris-HCl pH 8, 150 mM NaCl, 10% glycerol, 1 mM DTT, 0.5 ug tRNA, 1 ug BSA, <2 nM RNA, 30 min on ice, native 0.5x TBE gel at 4 C. As to conditions: protein: recombinant; tags: His6-MBP removed by TEV; glycine linker remnant; label: 5'-32P.
Data set [5] deals with T1, LARP1 DM15 region. Briefly: EMSA; up to 30 uM protein; EMSA: 20 mM Tris-HCl pH 8, 150 mM NaCl, 10% glycerol, 1 mM DTT, 0.5 ug tRNA, 1 ug BSA, <2 nM RNA, 30 min on ice, native 0.5x TBE gel at 4 C. As to conditions: protein: recombinant; tags: His6-MBP removed by TEV; glycine linker remnant; label: 5'-32P.

B1: U16 (ssRNA)
RNA: UUUUUUUUUUUUUUUU
On to B1, for which the binding result in the data set with LARP1 DM15 region [1] was “no binding”.

B2: RPS6 first 8 nt (ssRNA)
RNA: CCUCUUUU
For the molecule B2, the binding result with LARP1 DM15 region [2] is recorded as “no binding”.

B3: A16 (ssRNA)
RNA: AAAAAAAAAAAAAAAA
Consider B3, for which the binding result with LARP1 DM15 region [1] is given as “no binding”.

B4: RPS6-20mer (ssRNA)
RNA: CCUCUUUUCCGUGGCGCCUC
On to B4, for which the Kd with LARP1 DM15 region [3] turned out to be 776 ± 26 nM.

B5: RPL13A 5'TOP 16mer (ssRNA)
RNA: CACUUCUGCCGCCCCU
In the case of B5, the binding result with LARP1 DM15 region [2] is “no binding”.

B6: RPS6 first 11 nt (ssRNA)
RNA: CCUCUUUUCCG
Consider B6, for which, in the data set with LARP1 DM15 region [2], the binding result was “no binding”.

B7: RPS6-42mer (ssRNA)
RNA: CCUCUUUUCCGUGGCGCCUCGGAGGCGUUCAGCUGCUUCAAG
Turning to B7, the binding result in the data set with LARP1 DM15 region [4] is given as “binds”.

B8: RPS6 deltaTOP (ssRNA)
RNA: GUGGCGCCUCGGAGGCGUUCAGCUGCUUCAAG
B8: the binding result with LARP1 DM15 region [5] was “no binding”.

B9: PABPC1 5'TOP 20mer (ssRNA)
RNA: CCCCUUCUCCCCGGCGGUUA
B9: the binding result with LARP1 DM15 region [2] is recorded as “no binding”.
